Measured values taken from paper PMC3467072.

Target: T1, Rv3066 (TetR-family regulator) (Mycobacterium tuberculosis H37Rv, UniProt I6X658 1-202)
T1 sequence: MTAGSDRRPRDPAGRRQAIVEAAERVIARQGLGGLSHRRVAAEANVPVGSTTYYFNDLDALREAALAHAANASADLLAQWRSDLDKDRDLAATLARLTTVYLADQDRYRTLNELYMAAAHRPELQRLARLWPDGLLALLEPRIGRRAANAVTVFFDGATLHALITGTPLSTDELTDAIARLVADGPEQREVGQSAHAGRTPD
Assay: fluorescence polarization

B1: 30-bp IR1 dsDNA, fluorescein (dsDNA)
DNA 1: CGAGCCTCCTTTGTGTACATTTGTACATGT
DNA 2: ACATGTACAAATGTACACAAAGGAGGCTCG
  Kd: 4.4 ± 0.3 nM
